Patent US20220153847A1 (Chugai, published 2022)

T1: HLA-DQ2.5 on HLA-DQ2.5-positive PBMC B cells (human, UniProt P01909 24-254; P01920 33-261)
T1 construct: whole, on cells; also called HLA-DQ2.5+ PBMC B cell
T1 MHC II alpha: not shown
T1 MHC II beta: not shown


What was measured:
[1] = target: T2, HLA-DQ2.5/CLIP peptide complex on Ba/F3 cells (human); experiment: FACS, Ba/F3 cells; IC17=0%, DQN0139bb//IC17=100%;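 note: flow cytometry binding of anti-HLA-DQ antibodies at 5 µg/mL, incubated 30 min at room temperature with Ba/F3 lines presenting HLA-DQ/peptide complexes; antibody tested at 5 microgram/mL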
T2 construct: whole, on cells; also called Ba/F3-HLA-DQ2.5/CLIP

[2] = target: T3, HLA-DQ2.5/alpha 1 gliadin peptide complex on Ba/F3 cells (human); experiment: FACS, Ba/F3 cells; IC17=0%, DQN0139bb//IC17=100%;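 note: flow cytometry binding of anti-HLA-DQ antibodies at 5 µg/mL, incubated 30 min at room temperature with Ba/F3 lines presenting HLA-DQ/peptide complexes; antibody tested at 5 microgram/mL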
T3 construct: whole, on cells; also called Ba/F3-HLA-DQ2.5/alpha 1 gliadin; HLA-DQ2.5/a1 gliadin

[3] = target: T4, HLA-DQ2.5/alpha 2 gliadin peptide complex on Ba/F3 cells (human); experiment: FACS, Ba/F3 cells; IC17=0%, DQN0139bb//IC17=100%;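 note: flow cytometry binding of anti-HLA-DQ antibodies at 5 µg/mL, incubated 30 min at room temperature with Ba/F3 lines presenting HLA-DQ/peptide complexes; antibody tested at 5 microgram/mL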
T4 construct: whole, on cells; also called Ba/F3-HLA-DQ2.5/alpha 2 gliadin; HLA-DQ2.5/a2 gliadin

[4] = target: T5, HLA-DQ2.5/gamma 1 gliadin peptide complex on Ba/F3 cells (human); experiment: FACS, Ba/F3 cells; IC17=0%, DQN0139bb//IC17=100%;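 note: flow cytometry binding of anti-HLA-DQ antibodies at 5 µg/mL, incubated 30 min at room temperature with Ba/F3 lines presenting HLA-DQ/peptide complexes; antibody tested at 5 microgram/mL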
T5 construct: whole, on cells; also called Ba/F3-HLA-DQ2.5/gamma 1 gliadin; HLA-DQ2.5/g1 gliadin

[5] = target: T6, HLA-DQ2.5/gamma 2 gliadin peptide complex on Ba/F3 cells (human); experiment: FACS, Ba/F3 cells; IC17=0%, DQN0139bb//IC17=100%
T6 construct: whole, on cells; also called Ba/F3-HLA-DQ2.5/gamma 2 gliadin; HLA-DQ2.5/g2 gliadin

[6] = target: T7, HLA-DQ2.5/omega 1 gliadin peptide complex on Ba/F3 cells (human); experiment: FACS, Ba/F3 cells; IC17=0%, DQN0139bb//IC17=100%
T7 construct: whole, on cells; also called Ba/F3-HLA-DQ2.5/omega 1 gliadin; HLA-DQ2.5/w1 gliadin

[7] = target: T8, HLA-DQ2.5/omega 2 gliadin peptide complex on Ba/F3 cells (human); experiment: FACS, Ba/F3 cells; IC17=0%, DQN0139bb//IC17=100%
T8 construct: whole, on cells; also called Ba/F3-HLA-DQ2.5/omega 2 gliadin; HLA-DQ2.5/w2 gliadin

[8] = target: T9, HLA-DQ2.5/BC hordein peptide complex on Ba/F3 cells (human); experiment: FACS, Ba/F3 cells; IC17=0%, DQN0139bb//IC17=100%
T9 construct: whole, on cells; also called Ba/F3-HLA-DQ2.5/BC hordein

[9] = target: T10, HLA-DQ2.5/alpha 3 gliadin peptide complex on Ba/F3 cells (human); experiment: FACS, Ba/F3 cells; IC17=0%, DQN0139bb//IC17=100%
T10 construct: whole, on cells; also called Ba/F3-HLA-DQ2.5/alpha 3 gliadin; HLA-DQ2.5/a3 gliadin

[10] = target: T11, HLA-DQ2.5/alpha 1b gliadin peptide complex on Ba/F3 cells (human); experiment: FACS, Ba/F3 cells; IC17=0%, DQN0139bb//IC17=100%
T11 construct: whole, on cells; also called Ba/F3-HLA-DQ2.5/alpha 1b gliadin; HLA-DQ2.5/a1b gliadin

[11] = target: T12, HLA-DQ2.5/gamma 4b gliadin peptide complex on Ba/F3 cells (human); experiment: FACS, Ba/F3 cells; IC17=0%, DQN0139bb//IC17=100%
T12 construct: whole, on cells; also called Ba/F3-HLA-DQ2.5/gamma 4b gliadin; HLA-DQ2.5/g4b gliadin

[12] = target: T13, HLA-DQ2.5/avenin 1 peptide complex on Ba/F3 cells (human); experiment: FACS, Ba/F3 cells; IC17=0%, DQN0139bb//IC17=100%
T13 construct: whole, on cells; also called Ba/F3-HLA-DQ2.5/avenin 1

[13] = target: T14, HLA-DQ2.5/avenin 2 peptide complex on Ba/F3 cells (human); experiment: FACS, Ba/F3 cells; IC17=0%, DQN0139bb//IC17=100%
T14 construct: whole, on cells; also called Ba/F3-HLA-DQ2.5/avenin 2

[14] = target: T15, HLA-DQ2.5/avenin 3 peptide complex on Ba/F3 cells (human); experiment: FACS, Ba/F3 cells; IC17=0%, DQN0139bb//IC17=100%
T15 construct: whole, on cells; also called Ba/F3-HLA-DQ2.5/avenin 3

[15] = target: T16, HLA-DQ2.5/hordein 1 peptide complex on Ba/F3 cells (human); experiment: FACS, Ba/F3 cells; IC17=0%, DQN0139bb//IC17=100%
T16 construct: whole, on cells; also called Ba/F3-HLA-DQ2.5/hordein 1

[16] = target: T17, HLA-DQ2.5/hordein 2 peptide complex on Ba/F3 cells (human); experiment: FACS, Ba/F3 cells; IC17=0%, DQN0139bb//IC17=100%
T17 construct: whole, on cells; also called Ba/F3-HLA-DQ2.5/hordein 2

[17] = target: T18, HLA-DQ2.5/secalin 1 peptide complex on Ba/F3 cells (human); experiment: FACS, Ba/F3 cells; IC17=0%, DQN0139bb//IC17=100%
T18 construct: whole, on cells; also called Ba/F3-HLA-DQ2.5/secalin 1

[18] = target: T19, HLA-DQ2.5/secalin 2 peptide complex on Ba/F3 cells (human); experiment: FACS, Ba/F3 cells; IC17=0%, DQN0139bb//IC17=100%
T19 construct: whole, on cells; also called Ba/F3-HLA-DQ2.5/secalin 2

[19] = target: T20, HLA-DQ2.5/14mer 1 peptide complex on Ba/F3 cells (human); experiment: FACS, Ba/F3 cells; IC17=0%, DQN0139bb//IC17=100%
T20 construct: whole, on cells; also called Ba/F3-HLA-DQ2.5/14mer 1

[20] = target: T21, HLA-DQ2.5/26mer gliadin peptide complex on Ba/F3 cells (human); experiment: FACS, Ba/F3 cells; IC17=0%, DQN0139bb//IC17=100%
T21 construct: whole, on cells; also called Ba/F3-HLA-DQ2.5/26mer gliadin

[21] = target: T1, HLA-DQ2.5 on HLA-DQ2.5-positive PBMC B …; experiment: FACS, PBMC B cells; IC17=0%, DQN0139bb//IC17=100%

T2 sequence (P04233 96-124, chain 2 of 2, other chains not shown): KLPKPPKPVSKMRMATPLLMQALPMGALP

Binder | % MFI [1] | % MFI [2] | % MFI [3] | % MFI [4] | % MFI [5] | % MFI [6] | % MFI [7] | % MFI [8] | % MFI [9] | % MFI [10] | % MFI [11] | % MFI [12] | % MFI [13] | % MFI [14] | % MFI [15] | % MFI [16] | % MFI [17] | % MFI [18] | % MFI [19] | % MFI [20] | other results
DQN0344xx//DQN0385ee (bispecific antibody, human IgG1, kappa) heavy 1: QSLEESGGGLVKPGGTLTLTCTASGFSFSSSYWMCWVRQAPGKGLEWVACVYGGSDTTYYASWTKGRFTISKGSSTTVALQVTSLTAADTATYFCARDPLNYYYYGELNLWGPGTLVTVSSASTKGPSVFPLAPSSKSTSGGTAALGCLVKDYFPEPVTVSWNSGALTSGVHTFPAVLQSSGLYSLSSVVTVPSSSLGTQTYICNVNHKPSNTKVDKRVEPKSCDKTHTCPPCPAPELRRGPSVFLFPPKPKDTLMISRTPEVTCVVVDVSHEDPEVKFNWYVDGVEVHNAKTKPREEQYNSTYRVVSVLTVLHQDWLNGKEYKCKVSNKALPAPIEKTISKAKGQPREPQVYTLPPSREEMTKNQVSLTCLVKGFYPSDIAVEWESNGQPENNYKTTPPYLDSDGSFFLYSKLTVDKSRWQQGNVFSCSVMHEALHNHYTQESLSLSP light 1: AVVLTQTASPVSAAVGGTVTIRCQATENIYSGLAWYQQKPGQPPKVLIYYVSTLASGVPSRFKGSGSGTEYTLTISGVQCDDAATYYCQTYHDISNVTFGGGTKVEIKRTVAAPSVFIFPPSDEQLKSGTASVVCLLNNFYPREAKVQWKVDNALQSGNSQESVTEQDSKDCTYSLSSTLTLSKADYEKHKVYACEVTHQGLSSPVTKSFNRGEC heavy 2: QEQLEESGGDLVKPGASLTLTCTASGFSFYSSYWICWVRQAPGKGLEWIACIDTGSGSIDYASWVNGRFTISKTSSTTVTLQMTSLTVADTATYFCARDIGIDYNFWGPGTLVTVSSASTKGPSVFPLAPSSKSTSGGTAALGCLVKDYFPEPVTVSWNSGALTSGVHTFPAVLQSSGLYSLSSVVTVPSSSLGTQTYICNVNHKPSNTKVDKRVEPKSCDKTHTCPPCPAPELRRGPSVFLFPPKPKDTLMISRTPEVTCVVVDVSHEDPEVKFNWYVDGVEVHNAKTKPREEQYNSTYRVVSVLTVLHQDWLNGKEYKCKVSNKALPAPIEKTISKAKGQPREPQVYTLPPSRKEMTKNQVSLTCLVKGFYPSDIAVEWESNGQPENNYKTTPPYLDSDGSFFLYSKLTVDKSRWQQGNVFSCSVMHEALHNHYTQKSLSLSP light 2: AFELTQTPSFVEAAVGGTVTIKCQATQSISSYLNWYQQKPGQPPKLLIYYASTLASGVPSRFKGSGSGTEFSLTISGVECADAATYYCHYGISYVSFGGGTKVEIKRTVAAPSVFIFPPSDEQLKSGTASVVCLLNNFYPREAKVQWKVDNALQSGNSQESVTEQDSKDCTYSLSSTLTLSKADYEKHKVYACEVTHQGLSSPVTKSFNRGEC | 1.8% | 58.1% | 52.3% | 29.4% | 4.6% | 40% | 71.5% | 63.5% | 36.4% | 61.9% | 31.1% | 29.1% | 26.6% | 15.6% | 28% | 92.2% | 33.6% | 43.5% | 27.6% | 61.8% | % MFI [21]: 0.4%
DQN0385ee//IC17 (bispecific antibody, human IgG1, kappa) heavy 1: QEQLEESGGDLVKPGASLTLTCTASGFSFYSSYWICWVRQAPGKGLEWIACIDTGSGSIDYASWVNGRFTISKTSSTTVTLQMTSLTVADTATYFCARDIGIDYNFWGPGTLVTVSSASTKGPSVFPLAPSSKSTSGGTAALGCLVKDYFPEPVTVSWNSGALTSGVHTFPAVLQSSGLYSLSSVVTVPSSSLGTQTYICNVNHKPSNTKVDKRVEPKSCDKTHTCPPCPAPELRRGPSVFLFPPKPKDTLMISRTPEVTCVVVDVSHEDPEVKFNWYVDGVEVHNAKTKPREEQYNSTYRVVSVLTVLHQDWLNGKEYKCKVSNKALPAPIEKTISKAKGQPREPQVYTLPPSREEMTKNQVSLTCLVKGFYPSDIAVEWESNGQPENNYKTTPPYLDSDGSFFLYSKLTVDKSRWQQGNVFSCSVMHEALHNHYTQESLSLSP light 1: AFELTQTPSFVEAAVGGTVTIKCQATQSISSYLNWYQQKPGQPPKLLIYYASTLASGVPSRFKGSGSGTEFSLTISGVECADAATYYCHYGISYVSFGGGTKVEIKRTVAAPSVFIFPPSDEQLKSGTASVVCLLNNFYPREAKVQWKVDNALQSGNSQESVTEQDSKDCTYSLSSTLTLSKADYEKHKVYACEVTHQGLSSPVTKSFNRGEC heavy 2: QVQLQQSGPQLVRPGASVKISCKASGYSFTSYWMHWVNQRPGQGLEWIGMIDPSYSETRLNQKFKDKATLTVDKSSSTAYMQLSSPTSEDSAVYYCALYGNYFDYWGQGTTLTVSSASTKGPSVFPLAPSSKSTSGGTAALGCLVKDYFPEPVTVSWNSGALTSGVHTFPAVLQSSGLYSLSSVVTVPSSSLGTQTYICNVNHKPSNTKVDKRVEPKSCDKTHTCPPCPAPELRRGPSVFLFPPKPKDTLMISRTPEVTCVVVDVSHEDPEVKFNWYVDGVEVHNAKTKPREEQYNSTYRVVSVLTVLHQDWLNGKEYKCKVSNKALPAPIEKTISKAKGQPREPQVYTLPPSRKEMTKNQVSLTCLVKGFYPSDIAVEWESNGQPENNYKTTPPYLDSDGSFFLYSKLTVDKSRWQQGNVFSCSVMHEALHNHYTQKSLSLSP light 2: DIQMTQSSSSFSVSLGDRVTITCKASEDIYNRLAWYQQKPGNAPRLLISGATSLETGVPSRFSGSGSGKDYTLSITSLQTEDVATYYCQQYWSTPYTFGGGTKLEVKRTVAAPSVFIFPPSDEQLKSGTASVVCLLNNFYPREAKVQWKVDNALQSGNSQESVTEQDSKDSTYSLSSTLTLSKADYEKHKVYACEVTHQGLSSPVTKSFNRGEC | 1.3% | 6% | 85.6% | 26% | 3.4% | 17.2% | 75.2% | 68.1% | 20.9% | 19.2% | 32.4% | 4% | 8.3% | 0.2% | 24.7% | 98.3% | 11.8% | 34.4% | 23.3% | 70.5% | % MFI [21]: 0.3%
